Measured values: the supplement of paper PMC10065799, “High-throughput profiling of sequence recognition by tyrosine kinases and SH2 domains using bacterial peptide display” (eLife, 2023)

What was measured:
[1] = target: SHP2-C SH2; assay: SH2 binding enrichment of the phosphorylated peptide, bacterial display (enrichment ratio); higher = better substrate or ligand; peptides without Tyr show the background
[2] = target: c-Src SH2; assay: as above
[3] = target: Grb2 SH2 (UniProt P62993); assay: as above
[4] = tested on: c-Src; assay: phosphorylation enrichment, bacterial display (enrichment ratio); higher = better substrate or ligand; peptides without Tyr show the background
[5] = target: FGFR3 (UniProt P22607); assay: as above
[6] = target: MERTK (UniProt Q12866); assay: as above
[7] = target: Fes (UniProt P07332); assay: as above
[8] = target: Jak2 (UniProt O60674); assay: as above
[9] = target: EPHB1 (UniProt P54762); assay: as above
[10] = tested on: AncSZ; assay: as above
[11] = tested on: Fer (mouse); assay: as above
[12] = target: Fyn (UniProt P06241); assay: as above
[13] = tested on: c-Abl (mouse); assay: as above
[14] = target: FGFR1 (UniProt P11362); assay: as above
[15] = target: EPHB2 (UniProt P29323); assay: as above
[16] = target: Hck (UniProt P08631); assay: as above
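Wherever SH2 binding enrichment of the phosphorylated peptide, bacterial display is given: peptide library displayed on the E. coli surface as eCPX fusions, selected cells deep-sequenced, score is each peptide's frequency after selection divided by its frequency in the input.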
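Wherever phosphorylation enrichment, bacterial display is given: 11-residue human phosphosite peptides and single-mutation variants displayed on the E. coli surface, counted by deep sequencing, each peptide's frequency after selection divided by its frequency in the unselected input library; frequency after pTyr selection over input frequency; kinase dosed for 20-30% of maximal phosphorylation in three min.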

Sequence of FGFR1 (P11362 whole entry, looked up): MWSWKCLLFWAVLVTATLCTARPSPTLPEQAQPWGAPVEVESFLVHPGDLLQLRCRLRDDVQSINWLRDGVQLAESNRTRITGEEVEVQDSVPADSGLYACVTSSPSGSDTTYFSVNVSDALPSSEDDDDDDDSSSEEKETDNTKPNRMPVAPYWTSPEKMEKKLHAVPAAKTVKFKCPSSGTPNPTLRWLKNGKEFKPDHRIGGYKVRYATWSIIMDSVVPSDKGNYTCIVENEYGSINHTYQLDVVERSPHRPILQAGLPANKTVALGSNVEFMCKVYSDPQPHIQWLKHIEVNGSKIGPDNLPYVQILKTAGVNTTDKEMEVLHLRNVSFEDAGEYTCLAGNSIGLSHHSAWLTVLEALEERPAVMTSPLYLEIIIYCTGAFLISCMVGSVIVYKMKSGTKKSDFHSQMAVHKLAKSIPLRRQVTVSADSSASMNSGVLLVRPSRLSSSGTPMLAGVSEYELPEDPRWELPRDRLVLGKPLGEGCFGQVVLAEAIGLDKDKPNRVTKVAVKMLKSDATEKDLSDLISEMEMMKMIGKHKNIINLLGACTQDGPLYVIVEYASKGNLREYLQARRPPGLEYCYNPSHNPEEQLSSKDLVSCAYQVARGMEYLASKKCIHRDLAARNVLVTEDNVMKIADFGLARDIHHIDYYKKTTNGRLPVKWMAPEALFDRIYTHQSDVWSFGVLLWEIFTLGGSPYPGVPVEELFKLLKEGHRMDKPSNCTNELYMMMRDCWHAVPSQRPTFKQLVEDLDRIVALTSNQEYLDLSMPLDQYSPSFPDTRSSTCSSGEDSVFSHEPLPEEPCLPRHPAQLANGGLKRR
Sequence of Hck (P08631 whole entry, looked up, the tested form may be a part): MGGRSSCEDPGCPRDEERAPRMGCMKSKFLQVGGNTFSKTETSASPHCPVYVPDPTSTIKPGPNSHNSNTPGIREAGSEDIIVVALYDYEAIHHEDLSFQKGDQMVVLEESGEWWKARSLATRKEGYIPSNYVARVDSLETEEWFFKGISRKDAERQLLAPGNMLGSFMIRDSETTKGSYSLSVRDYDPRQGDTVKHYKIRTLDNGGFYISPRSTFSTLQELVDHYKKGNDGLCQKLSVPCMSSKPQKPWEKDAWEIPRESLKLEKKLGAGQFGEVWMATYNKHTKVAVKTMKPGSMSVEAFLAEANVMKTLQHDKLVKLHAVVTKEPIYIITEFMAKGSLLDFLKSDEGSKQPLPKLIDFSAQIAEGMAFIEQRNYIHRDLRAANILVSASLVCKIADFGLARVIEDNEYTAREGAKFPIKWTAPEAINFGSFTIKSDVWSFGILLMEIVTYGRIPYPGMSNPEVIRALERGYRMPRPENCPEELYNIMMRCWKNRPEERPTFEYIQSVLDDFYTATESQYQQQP
Sequence of Fyn (P06241 whole entry, looked up): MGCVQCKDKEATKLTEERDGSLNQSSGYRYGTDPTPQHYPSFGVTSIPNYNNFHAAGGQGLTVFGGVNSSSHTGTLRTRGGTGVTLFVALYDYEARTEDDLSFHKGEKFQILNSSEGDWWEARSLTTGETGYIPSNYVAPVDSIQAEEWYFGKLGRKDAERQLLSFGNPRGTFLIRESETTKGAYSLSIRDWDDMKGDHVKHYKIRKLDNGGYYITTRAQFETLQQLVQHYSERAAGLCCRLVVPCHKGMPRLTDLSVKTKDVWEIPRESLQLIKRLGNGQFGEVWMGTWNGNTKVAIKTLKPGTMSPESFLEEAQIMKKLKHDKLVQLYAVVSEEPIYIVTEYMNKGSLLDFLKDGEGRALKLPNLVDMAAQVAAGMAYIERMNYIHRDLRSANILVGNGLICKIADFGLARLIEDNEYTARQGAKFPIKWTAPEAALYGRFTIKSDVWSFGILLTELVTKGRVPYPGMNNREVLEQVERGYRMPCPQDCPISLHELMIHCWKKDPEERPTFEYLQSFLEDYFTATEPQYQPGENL
Sequence of EPHB2 (P29323 whole entry, looked up): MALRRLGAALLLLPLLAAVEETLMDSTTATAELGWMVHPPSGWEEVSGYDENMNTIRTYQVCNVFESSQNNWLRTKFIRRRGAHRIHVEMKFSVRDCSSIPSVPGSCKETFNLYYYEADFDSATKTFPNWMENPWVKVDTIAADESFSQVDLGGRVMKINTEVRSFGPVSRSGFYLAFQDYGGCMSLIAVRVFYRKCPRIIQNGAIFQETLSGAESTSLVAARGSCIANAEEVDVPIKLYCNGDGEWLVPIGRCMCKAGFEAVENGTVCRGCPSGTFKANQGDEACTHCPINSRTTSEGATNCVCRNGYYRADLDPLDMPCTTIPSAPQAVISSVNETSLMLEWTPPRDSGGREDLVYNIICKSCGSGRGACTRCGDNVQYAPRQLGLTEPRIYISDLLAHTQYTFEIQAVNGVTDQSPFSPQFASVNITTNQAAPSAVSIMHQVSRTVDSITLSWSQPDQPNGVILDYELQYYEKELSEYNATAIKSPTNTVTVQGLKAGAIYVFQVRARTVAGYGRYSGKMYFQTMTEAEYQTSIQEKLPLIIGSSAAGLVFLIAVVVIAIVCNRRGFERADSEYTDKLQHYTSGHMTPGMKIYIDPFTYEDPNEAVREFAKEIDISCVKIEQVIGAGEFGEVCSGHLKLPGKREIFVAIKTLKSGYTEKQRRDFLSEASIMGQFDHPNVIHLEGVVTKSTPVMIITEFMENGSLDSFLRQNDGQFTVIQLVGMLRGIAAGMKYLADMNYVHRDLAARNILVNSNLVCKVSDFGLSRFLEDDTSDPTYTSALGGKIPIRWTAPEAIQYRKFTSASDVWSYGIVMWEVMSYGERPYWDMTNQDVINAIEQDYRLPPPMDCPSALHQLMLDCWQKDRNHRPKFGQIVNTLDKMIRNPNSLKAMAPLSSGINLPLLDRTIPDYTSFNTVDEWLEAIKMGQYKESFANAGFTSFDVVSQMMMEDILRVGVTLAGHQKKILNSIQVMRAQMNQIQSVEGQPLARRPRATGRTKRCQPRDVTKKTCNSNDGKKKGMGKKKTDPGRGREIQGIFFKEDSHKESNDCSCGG
Sequence of MERTK (Q12866 whole entry, looked up): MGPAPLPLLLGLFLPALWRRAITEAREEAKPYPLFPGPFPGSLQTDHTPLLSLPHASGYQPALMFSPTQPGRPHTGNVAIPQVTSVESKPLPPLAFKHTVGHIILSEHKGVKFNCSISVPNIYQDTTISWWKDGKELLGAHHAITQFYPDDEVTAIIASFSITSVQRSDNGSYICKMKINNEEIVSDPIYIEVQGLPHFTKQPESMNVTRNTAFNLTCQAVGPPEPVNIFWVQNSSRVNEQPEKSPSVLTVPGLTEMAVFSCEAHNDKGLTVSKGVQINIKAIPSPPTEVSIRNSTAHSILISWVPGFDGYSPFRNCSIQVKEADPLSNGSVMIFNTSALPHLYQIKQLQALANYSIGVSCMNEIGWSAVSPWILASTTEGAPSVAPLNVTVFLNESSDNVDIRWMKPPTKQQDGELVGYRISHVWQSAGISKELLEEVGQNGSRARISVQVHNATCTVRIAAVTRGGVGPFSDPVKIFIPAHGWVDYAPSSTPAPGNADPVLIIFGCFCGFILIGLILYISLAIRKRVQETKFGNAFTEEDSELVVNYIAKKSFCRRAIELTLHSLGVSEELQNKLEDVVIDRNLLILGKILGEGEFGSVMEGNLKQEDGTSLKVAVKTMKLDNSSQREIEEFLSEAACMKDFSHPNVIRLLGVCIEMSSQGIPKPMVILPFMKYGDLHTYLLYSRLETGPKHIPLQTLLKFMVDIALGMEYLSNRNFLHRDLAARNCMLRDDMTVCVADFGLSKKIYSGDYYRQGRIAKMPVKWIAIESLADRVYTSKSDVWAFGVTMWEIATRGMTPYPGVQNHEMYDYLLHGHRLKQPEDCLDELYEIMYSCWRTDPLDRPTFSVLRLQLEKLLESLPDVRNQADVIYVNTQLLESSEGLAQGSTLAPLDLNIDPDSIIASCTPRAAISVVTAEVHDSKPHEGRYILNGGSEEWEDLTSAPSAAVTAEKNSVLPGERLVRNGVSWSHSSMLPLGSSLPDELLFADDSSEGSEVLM
Sequence of FGFR3 (P22607 whole entry, looked up): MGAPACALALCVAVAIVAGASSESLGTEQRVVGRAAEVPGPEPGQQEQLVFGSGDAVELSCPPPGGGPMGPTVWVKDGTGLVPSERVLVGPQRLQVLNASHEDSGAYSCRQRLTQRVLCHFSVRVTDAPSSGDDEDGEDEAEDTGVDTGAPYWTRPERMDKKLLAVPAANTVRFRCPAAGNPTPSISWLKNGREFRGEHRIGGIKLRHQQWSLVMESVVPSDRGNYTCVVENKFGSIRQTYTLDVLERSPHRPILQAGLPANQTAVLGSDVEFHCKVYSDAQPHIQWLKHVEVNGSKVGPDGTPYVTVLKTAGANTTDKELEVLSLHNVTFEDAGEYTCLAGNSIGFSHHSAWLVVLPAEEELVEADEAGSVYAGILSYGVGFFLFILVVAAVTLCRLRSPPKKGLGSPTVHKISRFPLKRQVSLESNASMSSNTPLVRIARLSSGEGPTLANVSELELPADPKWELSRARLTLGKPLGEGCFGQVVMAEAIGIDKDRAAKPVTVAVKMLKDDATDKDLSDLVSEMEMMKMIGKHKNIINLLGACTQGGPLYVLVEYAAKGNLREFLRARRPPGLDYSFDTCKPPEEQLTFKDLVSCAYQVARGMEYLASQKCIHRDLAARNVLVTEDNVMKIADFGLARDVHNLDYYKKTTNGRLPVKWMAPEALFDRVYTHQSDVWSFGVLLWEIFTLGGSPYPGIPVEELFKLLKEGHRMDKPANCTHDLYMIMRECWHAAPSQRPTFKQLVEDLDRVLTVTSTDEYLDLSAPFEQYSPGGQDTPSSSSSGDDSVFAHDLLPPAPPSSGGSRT
Sequence of Grb2 SH2 (P62993 whole entry, looked up): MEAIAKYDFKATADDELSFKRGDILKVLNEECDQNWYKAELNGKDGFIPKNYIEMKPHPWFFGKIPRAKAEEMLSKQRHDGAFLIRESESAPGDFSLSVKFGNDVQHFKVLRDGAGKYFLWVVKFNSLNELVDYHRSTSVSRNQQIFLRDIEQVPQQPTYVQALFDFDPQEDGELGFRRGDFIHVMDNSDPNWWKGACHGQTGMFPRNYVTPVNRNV

Sequence	SH2 binding enrichment [1]	SH2 binding enrichment [2]	SH2 binding enrichment [3]	phosphorylation enrichment [4]	phosphorylation enrichment [5]	phosphorylation enrichment [6]	phosphorylation enrichment [7]	phosphorylation enrichment [8]	phosphorylation enrichment [9]	phosphorylation enrichment [10]	phosphorylation enrichment [11]	phosphorylation enrichment [12]	phosphorylation enrichment [13]	phosphorylation enrichment [14]	phosphorylation enrichment [15]	phosphorylation enrichment [16]
EPSVPYRGMVF [GLI3_Y104_T107M]	0.567	0.414	0.804	0.462	0.508	0.432	0.816	0.639	0.43	0.704	0.38	0.413	0.471	0.422	0.56	0.376
LSGVIYVILWK [PMP22_Y153_R157W]	0.99	0.595	1.45	0.752	0.652	0.666	1.95	1.55	0.809	1.44	0.583	0.304	0.996	0.358	0.538	0.538
LRFDVYGGENE [STOX1_Y610_E608D_YF]	0.798	0.523	0.943	0.528	0.629	0.405	1.29	1.22	0.596	1.09	0.594	0.539	0.793	0.509	0.644	0.498
VGSEDYGRDLT [SPTAN1_Y1792]	0.571	0.369	0.63	0.513	1.04	0.456	1.44	1.24	0.626	1.1	0.621	0.588	1.04	0.564	0.587	0.592
IGGHAYGDQFR [IDH1_Y135_R132G_YF]	0.852	0.571	0.826	0.317	0.405	0.306	0.567	0.499	0.3	0.464	0.259	0.296	0.418	0.351	0.324	0.36
GASWRYGSGVS [NEU1_Y242]	0.721	0.461	0.728	0.42	0.617	0.413	0.782	0.566	0.512	0.637	0.428	0.479	0.506	0.531	0.432	0.505
MSLRSYGSREG [APC_Y96]	0.409	0.453	0.763	0.458	0.414	0.418	0.586	0.451	0.416	0.723	0.413	0.398	0.491	0.373	0.42	0.387
PSTFRYERGSR [INPPL1_Y663_P659S_YF]	0.879	0.47	0.811	0.491	0.429	0.366	0.484	0.459	0.368	0.51	0.352	0.408	0.628	0.411	0.47	0.345
RRIHNYRGHLW [VHL_Y112_S111N]	0.712	0.797	1.01	0.607	0.511	0.597	0.738	0.501	0.714	0.577	0.27	0.481	0.609	0.433	0.421	0.509
FFRDGCMPRQF [GSS_Y270_Y270C_YF]	0.496	0.506	0.849	0.463	0.606	0.386	1.2	0.949	0.533	0.863	0.489	0.464	0.717	0.416	0.518	0.497
FQQLFYLLQIN [IQGAP2_Y890_T894I_YF]	1.1	0.889	1.14	0.639	1.01	0.611	1.76	1.47	0.82	1.51	0.658	0.541	1.06	0.648	0.815	0.617
YSSLGYPPPEG [ZSWIM4_Y87]	16.1	3.02	1.04	1.22	0.821	7.49	0.793	0.568	0.511	0.741	0.67	2.36	0.66	1.06	0.508	1.66
RGVTRYIYNRE [HLA-DQB1_Y62_Y58G]	0.756	0.527	0.802	0.953	0.619	0.865	1.16	1.25	0.912	1.34	0.768	0.96	1	0.809	0.547	0.97
LLKMMYLMLDN [STAT1_Y203_K201M]	1.39	1.44	1.63	0.611	0.902	0.597	1.51	0.991	0.946	1.08	0.603	0.584	1.07	0.874	0.693	0.644
SDYSRYARTSI [TERT_Y949_S948R]	0.535	0.723	0.755	0.444	0.351	0.444	0.581	0.549	0.434	0.59	0.388	0.443	0.46	0.428	0.495	0.428
DVFVSYDCGKS [SORL1_Y139_Y141C_YF]	0.592	0.528	0.964	0.449	0.61	0.371	1.04	1.05	0.611	0.969	0.521	0.495	0.74	0.485	0.518	0.592
ETKENYGKTLK [CHL1_Y291]	0.562	0.664	1.16	0.433	0.508	0.383	0.541	0.504	0.348	0.526	0.351	0.61	0.414	0.325	0.297	0.498

Sequence	SH2 binding enrichment [1]	SH2 binding enrichment [2]	SH2 binding enrichment [3]	phosphorylation enrichment [4]	phosphorylation enrichment [5]	phosphorylation enrichment [6]	phosphorylation enrichment [7]	phosphorylation enrichment [8]	phosphorylation enrichment [9]	phosphorylation enrichment [10]	phosphorylation enrichment [11]	phosphorylation enrichment [12]	phosphorylation enrichment [13]	phosphorylation enrichment [14]	phosphorylation enrichment [15]	phosphorylation enrichment [16]
HFECKYVINAI [MAOA_Y268_YF]	0.49	0.432	0.619	0.648	0.998	0.529	1.87	1.47	1.14	2.43	0.502	0.709	1.23	0.627	0.762	0.566
IVAREYYSDAD [CAMK2A_Y106_E109D]	0.833	3.1	0.869	0.559	0.633	0.41	1.13	0.959	0.775	1.04	0.589	0.473	0.828	0.657	0.647	0.525
EIRTQYEVMAS [GFAP_Y242_A244V]	0.89	6.97	0.767	0.437	0.635	0.378	0.839	1.07	0.445	0.74	0.49	0.484	0.615	0.493	0.476	0.49
QFFQSYFNNNF [ZNF236_Y644]	1.02	0.755	1.57	0.549	0.841	0.627	1.14	1.6	0.981	0.766	0.37	0.682	0.455	0.643	0.29	0.532
LARHMYDKEFF [MET_Y1230_D1228H_YF]	0.65	0.546	0.7	0.688	0.55	0.559	1.08	0.646	0.355	0.78	0.29	0.404	0.524	0.606	0.438	0.399
INMKEYCKKDY [NTN1_Y490_K489E]	0.501	0.498	0.723	0.429	0.595	0.364	0.944	1.29	0.461	0.824	0.615	0.451	0.661	0.447	0.462	0.477
HNLDYYKMTTN [FGFR3_Y648_K650M]	1	0.757	0.756	0.894	14	0.68	1.04	11.2	2.13	1.91	0.64	0.454	0.591	17.7	1.2	0.607
DYGSGYPNDPK [RNASEH2A_Y210]	0.589	0.319	0.699	0.575	0.643	0.569	1.01	0.93	0.482	0.86	0.538	0.474	0.778	0.548	0.625	0.574
KMATAYIRRMS [BCO1_Y264]	0.497	0.389	0.593	0.514	0.431	0.468	0.572	0.58	0.359	0.68	0.362	0.425	0.544	0.461	0.495	0.425
LSPPVYLTNEW [NRK_Y885_I880L]	0.715	0.58	0.959	0.909	0.758	0.616	1.26	1.54	0.736	0.935	0.636	0.587	1.21	0.702	0.851	0.651
YIRRDYEACKA [BBS4_Y48_K46R]	0.917	0.514	0.48	0.706	0.578	0.435	0.807	0.75	0.897	0.765	0.426	0.572	0.64	0.633	0.685	0.509
QSVEPYTKQQL [STAT3_Y640]	0.649	0.528	0.978	0.626	0.558	0.709	0.783	0.755	0.614	0.715	0.543	0.536	0.81	0.553	0.695	0.641
EYKKKYSDADI [CKAP5_Y1860]	0.614	0.435	0.819	0.371	0.475	0.383	0.819	0.671	0.393	0.709	0.399	0.442	0.637	0.404	0.474	0.367
ILGRTYFVNHE [NEDD4_Y627_YF]	0.656	0.463	0.865	0.467	0.605	0.355	0.854	0.758	0.526	0.83	0.429	0.392	0.735	0.43	0.398	0.379
ESLSSYWESAK [APOC2_Y47]	0.753	0.713	0.889	0.392	0.692	0.381	1.01	0.888	0.527	0.84	0.354	0.414	0.584	0.63	0.576	0.464
RGKLFYQEVPA [METTL11B_Y76_A72G]	0.804	1.11	0.956	0.564	1.29	3.21	1.05	0.649	1.48	0.844	0.719	0.544	0.503	1.37	0.777	0.853
